Results as given in patent publication US20150376261A1.
Blank lines part the entries; values can stand above or below the binder they belong to.

Assays:
Experiment in all cases: cell-based or functional assay
[1] = target: hβ1AR (human) (UniProt P08588)
[2] = target: β2AR365N (human) (UniProt P07550)
[3] = target: M2Δi3R (human) (UniProt P08172)
Chain of M2Δi3R (human) (P08172 other isoform, or with tags, fused parts or gaps mutant limits assumed): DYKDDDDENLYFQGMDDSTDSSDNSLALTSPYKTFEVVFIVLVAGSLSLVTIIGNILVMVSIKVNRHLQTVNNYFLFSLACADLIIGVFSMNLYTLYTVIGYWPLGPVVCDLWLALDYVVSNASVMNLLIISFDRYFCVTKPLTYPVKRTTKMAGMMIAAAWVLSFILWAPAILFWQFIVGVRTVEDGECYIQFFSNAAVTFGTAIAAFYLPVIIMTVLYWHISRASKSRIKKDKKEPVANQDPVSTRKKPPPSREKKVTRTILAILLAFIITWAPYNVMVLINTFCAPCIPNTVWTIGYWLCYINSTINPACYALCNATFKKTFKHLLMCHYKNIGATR

Chain of hβ1AR (human) (P08588 other isoform, or with tags, fused parts or gaps): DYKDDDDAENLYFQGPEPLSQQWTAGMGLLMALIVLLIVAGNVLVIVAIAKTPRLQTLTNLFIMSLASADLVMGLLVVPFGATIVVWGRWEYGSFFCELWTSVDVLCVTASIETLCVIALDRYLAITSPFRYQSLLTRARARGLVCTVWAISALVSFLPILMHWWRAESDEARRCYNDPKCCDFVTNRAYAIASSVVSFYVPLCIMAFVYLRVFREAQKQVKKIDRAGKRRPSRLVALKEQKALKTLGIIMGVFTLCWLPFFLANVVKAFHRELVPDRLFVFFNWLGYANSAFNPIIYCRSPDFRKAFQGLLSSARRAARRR

IC50 ratio, ICI-118,551: IC50 hβ1AR-Nb69 / IC50high hβ1AR-Nb80 fusion [1]: 0.077 | IC50 ratio, alprenolol: IC50 hβ1AR-Nb69 / IC50high hβ1AR-Nb80 fusion [1]: 0.988 | IC50 ratio, epinephrine: IC50 hβ1AR-Nb69 / IC50high hβ1AR-Nb80 fusion ([3H]-DHA competition, Sf9 membranes) [1]: 68.7 | IC50 ratio, ICI-118,551: β2AR365N-Nb69 mock fusion / β2AR365N-Nb80 fusion [2]: 0.023 | IC50 ratio, alprenolol: β2AR365N-Nb69 mock fusion / β2AR365N-Nb80 fusion [2]: 4 | IC50 ratio, carvedilol: non-fused β2AR365N / β2AR365N-Nb80 fusion [2]: 0.22 | IC50 ratio, carvedilol: β2AR365N-Nb69 mock fusion / β2AR365N-Nb80 fusion [2]: 0.4 | IC50 ratio, epinephrine: non-fused β2AR365N / β2AR365N-Nb80 fusion [2]: 1380 | IC50 ratio, epinephrine: β2AR365N-Nb69 mock fusion / β2AR365N-Nb80 fusion ([3H]-DHA competition; Nb fused to the receptor) [2]: 2070 | IC50 ratio, isoproterenol: β2AR365N-Nb69 mock fusion / β2AR365N-Nb80 fusion [2]: 670 | IC50 ratio, salbutamol: β2AR365N-Nb69 mock fusion / β2AR365N-Nb80 fusion [2]: 373 | apparent potency shift, compound 9: IC50 β2AR365N-Nb69 / IC50 β2AR365N-Nb80 fusion [2]: 71 | apparent potency shift, compound 10: IC50 β2AR365N-Nb69 / IC50 β2AR365N-Nb80 fusion [2]: 94 | apparent potency shift, epinephrine: Nb80 fusion compared to Nb69 fusion (Example 19 experiment) [2]: 855 | apparent potency shift, fragment CC56213: IC50 β2AR365N-Nb69 / IC50 β2AR365N-Nb80 fusion [2]: 22 | apparent potency shift, isoprotenerol: Nb80 fusion compared to Nb69 fusion (Example 19 experiment) [2]: 155 | concentration of exogenous Nb80 at which the epinephrine IC50 of non-fused β2AR365N equals that of the fusion [2]: 5 µM | effective intramolecular concentration of Nb80 in the β2AR365N-Nb80 fusion [2]: > 500 nM | epinephrine potency shift: IC50 of the mock fusion / IC50 of non-fused β2AR365N with 500 nM exogenous Nb80 [2]: 87 fold | epinephrine potency shift: IC50 of the mock fusion / IC50 of the β2AR365N-Nb80 fusion (Nb80 fused to the receptor) [2]: 534 fold | molar excess of exogenous Nb80 over β2AR needed to match the fusion [2]: 12500 fold
B1: Nb80 (VHH)
VHH: QVQLQESGGGLVQAGGSLRLSCAASGSIFSINTMGWYRQAPGKQRELVAAIHSGGSTNYANSVKGRFTISRDNAANTVYLQMNSLKPEDTAVYYCNVKDYGAVLYEYDYWGQGTQVTVSS

IC50 ratio, carbachol: IC50 M2Δi3R / IC50high M2Δi3R-Nb9-1 fusion ([3H]-NMS competition, Sf9 membranes) [3]: 67.2 | IC50 ratio, oxotremorine M: IC50 M2Δi3R / IC50high M2Δi3R-Nb9-1 fusion [3]: 316
B2: Nb9-1 (VHH)
VHH: QVQLQESGGGLVQAGGSLRLSCAASGHTFSSARMYWVRQAPGKEREFVAAISRSGFTYSADSVKGRFTISRDIANNTVYLQMNSLQPEDTAIYTCYAAYLDEFYNDYTHYWGLGTQVTVSS

IC50 ratio, ICI-118,551: β2AR365N-Nb69 mock fusion / β2AR365N-Nb71 fusion [2]: 0.01 | IC50 ratio, alprenolol: β2AR365N-Nb69 mock fusion / β2AR365N-Nb71 fusion [2]: 1.5 | IC50 ratio, carvedilol: β2AR365N-Nb69 mock fusion / β2AR365N-Nb71 fusion [2]: 0.6 | IC50 ratio, epinephrine: β2AR365N-Nb69 mock fusion / β2AR365N-Nb71 fusion [2]: 2030 | IC50 ratio, isoproterenol: β2AR365N-Nb69 mock fusion / β2AR365N-Nb71 fusion [2]: 80 | IC50 ratio, salbutamol: β2AR365N-Nb69 mock fusion / β2AR365N-Nb71 fusion [2]: 454
B3: Nb71 (VHH)
VHH: QVQLQESGGGLVQPGGSLRLSCAASGFAFSSYELRWYRQAPGKQHELVAGITTGGNTYYADSVKGRFTISRDNAKNTVYLQMSNLRPEDTAVYACNANWDLLSDYWGQGTQVTVSS
